# Source: paper PMC10917357, “Specific protein-RNA interactions are mostly preserved in biomolecular condensates”
# Tests used:
# [1] = target: SARS-CoV-2 nucleocapsid (N) (SARS-CoV-2, UniProt P0DTC9 1-419); test: UV cross-linking MS (LLPS-CLIR-MS); Assay buffers largely not in the material; N protein in 20 mM sodium phosphate pH 6.0, 50 mM NaCl (fig. S7 dispersed mimic 300 mM NaCl); UV 254 nm; turbidity of N at room temperature; NMR 303 or 310 K; conditions: protein: recombinant; tags: N-terminal His6 removed by TEV; chain copies: 2; label: 18O4-ATP post-digestion labeling; hairpin with internal loops
# PTBP1 (C250S/C251S) [2] = target: T1, PTBP1 (C250S/C251S) (Homo sapiens, UniProt P26599-1 1-531, C250S;C251S); test: UV cross-linking MS (LLPS-CLIR-MS); dispersed and condensed phases; RRM cross-links (H411, H457); Assay buffers largely not in the material; N protein in 20 mM sodium phosphate pH 6.0, 50 mM NaCl (fig. S7 dispersed mimic 300 mM NaCl); UV 254 nm; turbidity of N at room temperature; NMR 303 or 310 K; conditions: protein: recombinant; label: 13C/15N-labeled and unlabeled 1:1; single strand
# PTBP1 (C250S/C251S) [3] = target: T1, PTBP1 (C250S/C251S); test: UV cross-linking MS (LLPS-CLIR-MS); dispersed and condensed phases; Assay buffers largely not in the material; N protein in 20 mM sodium phosphate pH 6.0, 50 mM NaCl (fig. S7 dispersed mimic 300 mM NaCl); UV 254 nm; turbidity of N at room temperature; NMR 303 or 310 K; conditions: protein: recombinant; label: isotope-labeled; hairpin
# FUS = FUS (UniProt P35637 1-526); test: UV cross-linking MS (LLPS-CLIR-MS); 0.075 and 0.1 eq RNA, 20 uM FUS; RRM (M321, Y325) and region C-terminal to ZnF; Assay buffers largely not in the material; N protein in 20 mM sodium phosphate pH 6.0, 50 mM NaCl (fig. S7 dispersed mimic 300 mM NaCl); UV 254 nm; turbidity of N at room temperature; NMR 303 or 310 K; conditions: protein: recombinant; tags: GB1-His6 removed by TEV; label: isotope-labeled; two hairpins
binder,measurement,setting,value
GGUUCACCGAGGCCACGCGGAGUACGAUCGAGUGUACAGUGAACC (structured_RNA) [s2m],binding result,[1],binds
GGGAGAUCUCUAAAAAUCUCUAAAAAUCUCUAAAAA (ssRNA) [3xUCUCU],binding result,PTBP1 (C250S/C251S) [2],binds
GGGGGACUGCGUUCGCGCUUUCCC (structured_RNA) [U1-SL4],binding result,PTBP1 (C250S/C251S) [3],binds
U1-SL34 (structured_RNA) RNA: GGGAUCCGAUUUCCCCAAAUGUGGGAAACUCGACUGCAUAAUUUGUGGUAGUGGGGGACUGCGUUCGCGCUUUCCCCUG,binding result,FUS,binds
